Assay results reported in the Human Domainome abundance scans (Beltran et al. 2025).
± gives the uncertainty stated by the source.

B1: POU domain, class 6, transcription factor 2, residues 609 to 663; numbered along this chain, P78424 (parent)
chain: KRRTSFTPQALEILNAHFEKNTHPSGQEMTEIAEKLNYDREVVRVWFCNKRQALK
B2: Activity-dependent neuroprotector homeobox protein, residues 770 to 810; numbered along this chain, Q9H2P0 (parent)
chain: FLTKYFNKQPYPTRREIEKLAASLWLWKSDIASHFSNKRKK

Variants of: B1
Assay: abundance fitness (aPCA) (normalised: wild type 0, dead -1); higher = more abundant; growth selection in yeast, the domain comes from the species named
Conditions: Homo sapiens
For KRRTSFTPQALEILNAHFEKNTHPSGQEMTEIAEKLNYDREVVRVWFCNKRWALK [Q52W], the abundance fitness was -0.244 ± 0.1. In the case of KRRTSFTPQALEILNAHFEKNTHPSGQEMTEIAEKLNYDREVVRVWFCNKRYALK [Q52Y], the abundance fitness is reported as -0.339 ± 0.15. For KRRTSFTPQALEILNAHFEKNTHPSGQEMTEIAEKLNYDREVVRVWFCNKRQCLK [A53C], the abundance fitness was -0.215 ± 0.12. KRRTSFTPQALEILNAHFEKNTHPSGQEMTEIAEKLNYDREVVRVWFCNKRQELK [A53E] showed an abundance fitness of -0.105 ± 0.27. KRRTSFTPQALEILNAHFEKNTHPSGQEMTEIAEKLNYDREVVRVWFCNKRQFLK [A53F] showed an abundance fitness of -0.267 ± 0.16. KRRTSFTPQALEILNAHFEKNTHPSGQEMTEIAEKLNYDREVVRVWFCNKRQHLK [A53H] gave an abundance fitness of 0.012 ± 0.24. With KRRTSFTPQALEILNAHFEKNTHPSGQEMTEIAEKLNYDREVVRVWFCNKRQILK [A53I] the abundance fitness was -0.11 ± 0.14. Variant KRRTSFTPQALEILNAHFEKNTHPSGQEMTEIAEKLNYDREVVRVWFCNKRQKLK [A53K] has an abundance fitness of -0.167 ± 0.27. Variant KRRTSFTPQALEILNAHFEKNTHPSGQEMTEIAEKLNYDREVVRVWFCNKRQLLK [A53L] has an abundance fitness of -0.086 ± 0.098. With KRRTSFTPQALEILNAHFEKNTHPSGQEMTEIAEKLNYDREVVRVWFCNKRQMLK [A53M] the abundance fitness was 0.034 ± 0.19. Variant KRRTSFTPQALEILNAHFEKNTHPSGQEMTEIAEKLNYDREVVRVWFCNKRQNLK [A53N] has an abundance fitness of 0.046 ± 0.31. KRRTSFTPQALEILNAHFEKNTHPSGQEMTEIAEKLNYDREVVRVWFCNKRQPLK [A53P] gave an abundance fitness of -0.392 ± 0.12. With KRRTSFTPQALEILNAHFEKNTHPSGQEMTEIAEKLNYDREVVRVWFCNKRQQLK [A53Q] the abundance fitness was 0.042 ± 0.13. KRRTSFTPQALEILNAHFEKNTHPSGQEMTEIAEKLNYDREVVRVWFCNKRQRLK [A53R] gave an abundance fitness of -0.194 ± 0.096. Variant KRRTSFTPQALEILNAHFEKNTHPSGQEMTEIAEKLNYDREVVRVWFCNKRQSLK [A53S] has an abundance fitness of 0.005 ± 0.099. With KRRTSFTPQALEILNAHFEKNTHPSGQEMTEIAEKLNYDREVVRVWFCNKRQTLK [A53T] the abundance fitness was -0.157 ± 0.13. With KRRTSFTPQALEILNAHFEKNTHPSGQEMTEIAEKLNYDREVVRVWFCNKRQVLK [A53V] the abundance fitness was -0.2 ± 0.13. Work on KRRTSFTPQALEILNAHFEKNTHPSGQEMTEIAEKLNYDREVVRVWFCNKRQWLK [A53W] yielded an abundance fitness of -0.089 ± 0.14. Variant KRRTSFTPQALEILNAHFEKNTHPSGQEMTEIAEKLNYDREVVRVWFCNKRQYLK [A53Y] has an abundance fitness of -0.018 ± 0.21. KRRTSFTPQALEILNAHFEKNTHPSGQEMTEIAEKLNYDREVVRVWFCNKRQAAK [L54A] showed an abundance fitness of -0.002 ± 0.14. For KRRTSFTPQALEILNAHFEKNTHPSGQEMTEIAEKLNYDREVVRVWFCNKRQACK [L54C], the abundance fitness was -0.258 ± 0.36. In the case of KRRTSFTPQALEILNAHFEKNTHPSGQEMTEIAEKLNYDREVVRVWFCNKRQADK [L54D], the abundance fitness is reported as -0.182 ± 0.31. KRRTSFTPQALEILNAHFEKNTHPSGQEMTEIAEKLNYDREVVRVWFCNKRQAEK [L54E] showed an abundance fitness of -0.133 ± 0.13. With KRRTSFTPQALEILNAHFEKNTHPSGQEMTEIAEKLNYDREVVRVWFCNKRQAFK [L54F] the abundance fitness was -0.199 ± 0.12. For KRRTSFTPQALEILNAHFEKNTHPSGQEMTEIAEKLNYDREVVRVWFCNKRQAHK [L54H], the abundance fitness was -0.159 ± 0.22. In the case of KRRTSFTPQALEILNAHFEKNTHPSGQEMTEIAEKLNYDREVVRVWFCNKRQAIK [L54I], the abundance fitness is reported as -0.242 ± 0.25. With KRRTSFTPQALEILNAHFEKNTHPSGQEMTEIAEKLNYDREVVRVWFCNKRQAKK [L54K] the abundance fitness was -0.159 ± 0.16. KRRTSFTPQALEILNAHFEKNTHPSGQEMTEIAEKLNYDREVVRVWFCNKRQAMK [L54M] showed an abundance fitness of -0.106 ± 0.19. In the case of KRRTSFTPQALEILNAHFEKNTHPSGQEMTEIAEKLNYDREVVRVWFCNKRQAPK [L54P], the abundance fitness is reported as 0.042 ± 0.17. For KRRTSFTPQALEILNAHFEKNTHPSGQEMTEIAEKLNYDREVVRVWFCNKRQAQK [L54Q], the abundance fitness was -0.175 ± 0.34. KRRTSFTPQALEILNAHFEKNTHPSGQEMTEIAEKLNYDREVVRVWFCNKRQARK [L54R] gave an abundance fitness of -0.103 ± 0.12. KRRTSFTPQALEILNAHFEKNTHPSGQEMTEIAEKLNYDREVVRVWFCNKRQASK [L54S] showed an abundance fitness of -0.065 ± 0.1. Variant KRRTSFTPQALEILNAHFEKNTHPSGQEMTEIAEKLNYDREVVRVWFCNKRQATK [L54T] has an abundance fitness of -0.217 ± 0.22. KRRTSFTPQALEILNAHFEKNTHPSGQEMTEIAEKLNYDREVVRVWFCNKRQAVK [L54V] gave an abundance fitness of -0.101 ± 0.12. Variant KRRTSFTPQALEILNAHFEKNTHPSGQEMTEIAEKLNYDREVVRVWFCNKRQAYK [L54Y] has an abundance fitness of -0.417 ± 0.47. Variant KRRTSFTPQALEILNAHFEKNTHPSGQEMTEIAEKLNYDREVVRVWFCNKRQALG [K55G] has an abundance fitness of -0.226 ± 0.42. Work on KRRTSFTPQALEILNAHFEKNTHPSGQEMTEIAEKLNYDREVVRVWFCNKRQALN [K55N] yielded an abundance fitness of -0.186 ± 0.27. Variant KRRTSFTPQALEILNAHFEKNTHPSGQEMTEIAEKLNYDREVVRVWFCNKRQALR [K55R] has an abundance fitness of 0.001 ± 0.31. For KRRTSFTPQALEILNAHFEKNTHPSGQEMTEIAEKLNYDREVVRVWFCNKRQALV [K55V], the abundance fitness was -0.304 ± 0.5.

Variants of: B2
Assay: as above
Conditions: Homo sapiens
FLTKYFNKQPYPTRREIEKLAASLWLWKSDIASHYSNKRKK [F35Y] gave an abundance fitness of -0.235 ± 0.065. In the case of FLTKYFNKQPYPTRREIEKLAASLWLWKSDIPSHFSNKRKK [A32P], the abundance fitness is reported as -0.383 ± 0.11. With FLTKYFNKQPYPTRREIEKLAASLWLWKSDIASHFSNKFKK [R39F] the abundance fitness was -0.157 ± 0.067. FLTKYFNKQPYPTRREIEKLAASLWLWKSDIASHFSNPRKK [K38P] showed an abundance fitness of -0.206 ± 0.052. Variant FLTKYFNKQPWPTRREIEKLAASLWLWKSDIASHFSNKRKK [Y11W] has an abundance fitness of 0.003 ± 0.095. For FHTKYFNKQPYPTRREIEKLAASLWLWKSDIASHFSNKRKK [L2H], the abundance fitness was -0.738 ± 0.17. For FLTDYFNKQPYPTRREIEKLAASLWLWKSDIASHFSNKRKK [K4D], the abundance fitness was -0.644 ± 0.19. Work on FLTKYFNKQPYPERREIEKLAASLWLWKSDIASHFSNKRKK [T13E] yielded an abundance fitness of -0.369 ± 0.1. In the case of FLTKYFNKQPYPTRREIEKLAASLWRWKSDIASHFSNKRKK [L26R], the abundance fitness is reported as 0.198 ± 0.049. Variant FLTKYFNKQPYPTRREIEKVAASLWLWKSDIASHFSNKRKK [L20V] has an abundance fitness of -0.025 ± 0.061. Variant FLTKYFYKQPYPTRREIEKLAASLWLWKSDIASHFSNKRKK [N7Y] has an abundance fitness of -0.712 ± 0.12. With FLTKYFNKQPYPTRREIEKLAASLWLWKSDIASHFSNKEKK [R39E] the abundance fitness was -0.249 ± 0.11. Work on FLTKYFNKQPYPTRREIEKLAASLWLWKKDIASHFSNKRKK [S29K] yielded an abundance fitness of 0.208 ± 0.094. FLTKYFNKQPYPTRREIEKLAASLWLWKSDKASHFSNKRKK [I31K] showed an abundance fitness of -0.276 ± 0.084. For FLTKYFNKQPYPSRREIEKLAASLWLWKSDIASHFSNKRKK [T13S], the abundance fitness was -0.079 ± 0.083. In the case of FLTKYFNKQPYPTRREIEKLAASLWLWKHDIASHFSNKRKK [S29H], the abundance fitness is reported as 0.077 ± 0.076. FLTKYFNKQPYPTRREIEKLAASLWAWKSDIASHFSNKRKK [L26A] showed an abundance fitness of -0.116 ± 0.068.
